As usually defined, the koff is the rate constant with which the complex falls apart. The term IC50 denotes the concentration at which inhibition is half-maximal. Read a high IC50 as lower potency. As usually defined, the Kd is the equilibrium constant for the complex coming apart. Read a high Kd as weaker binding. Usually kon stands for the rate constant with which the complex forms. Lower therefore signals slower complex formation.

Assay [1] has as its target T1, human HGF (R&D Systems, 294-HG/CF) (human, UniProt P14210 32-728).
T1 construct: The entry begins at QRKRR, without signal peptide; Amine-coupled to the chip in SPR and biotinylated in AlphaScreen; also called rec hHGF (R&D systems)
The experiment in a line: SPR (Biacore T100), HGF amine-coupled to CM5 chip, periplasmic extract at one dilution. The method, then: Off-rate constants (Koff) of individual Nanobodies were determined by surface plasmon resonance on a Biacore T100 instrument.
Human HGF (R&D) was amine-coupled to a CM5 sensor chip at a density of 2500 relative units. Remaining reactive groups were inactivated using ethanolamine. Nanobody binding was assessed at a single dilution of periplasmic extract, whereas c-Met was tested with a single concentration of 10 nM. Each sample was injected for 2 min at a flow rate of 45 μl/min to allow for binding to chip-bound antigen. Next, binding buffer without Nanobody was sent over the chip at the same flow rate to allow dissociation of bound Nanobody. After 10 min, remaining bound analyte was removed by injecting regeneration solution (1M NaCl, 50 mM NaOH).
On the technique in general: In SPR one partner is held on a chip, and binding of the other changes the refractive index at the surface.

The target of assay [2] is T1, human HGF (R&D Systems, 294-HG/CF). Kind of assay: AlphaScreen competition, biotinylated HGF and c-Met-Fc, dilution series of purified Nanobody. As for the experimental part:
(§1) In brief, 5 μl of 1/5 prediluted periplasmic extract of individual Nanobody clones were incubated with 3 nM biotinylated HGF, 2 nM c-Met-Fc, streptavidin coated donor beads and anti-human IgG1 Fc Nanobody covalently coupled AlphaScreen acceptor beads. Monoclonal antibody clone 24612 (R&D systems) known to inhibit the HGF/c-Met-Fc interaction, was used as a positive control. Assays were read in an Envision AlphaScreen™ option fitted multimode reader (Perkin Elmer). Individual clones were scored as putative HGF/c-Met-Fc interaction inhibiting if the presence of the periplasmic extract decreased the fluorescent signal of the acceptor beads. Both inhibitory and non-inhibitory clones were identified. A 10-fold reduction in signal with respect to the negative control (irrelevant periplasmic extract and buffer) was used to select the HGF/c-Met inhibiting Nanobodies. As a positive control, anti-HGF monoclonal antibody (R&D systems, clone 24612) was included. FIG. 2 depicts an example of screen of periplasmic extracts using AlphaScreen.
(§2) Serial dilutions of purified Nanobodies were then analyzed for their ability to block the interaction of human HGF with c-Met-Fc using the same AlphaScreen™ assay as described above (1.4). […]
A general note: Alpha assays give light when donor and acceptor beads are brought close together.

Assay [3] deals with T2, human HGF (R&D material and Peprotech material, values averaged over both) (human, UniProt P14210 32-728).
T2 construct: As printed they differ in one letter
The experiment in a line: SPR (Biacore T100), summary table.

The target of assay [4] is T2, human HGF (R&D material and Peprotech …). The experiment in a line: SPR (Biacore T100), purified Nanobody, average of R&D and Peprotech HGF. As for the experimental part:
Affinity constants (Kd) of individual purified Nanobody clones were determined by surface plasmon resonance on a Biacore T100 instrument essentially as described above. The average was taken of an analysis performed on R&D material and Peprotech material.

Assay [5] shares this target. Kind of assay: SPR (Biacore T100), purified Nanobody, biphasic dissociation, kd2 fitted 300-720 s after injection start.
The target of assay [6] is T1, human HGF (R&D Systems, 294-HG/CF). Kind of assay: AlphaScreen competition, serial dilution of purified Nanobody; inhibition of biotinylated human HGF binding to c-Met-Fc. As for the experimental part:
as §1, §2

Assay [7] addresses T2, human HGF (R&D material and Peprotech …). Kind of assay: SPR (Biacore T100), purified Nanobody, biphasic dissociation, kd1 fitted 125-185 s after injection start.

Numbering of substitutions follows the chain as printed. Some results are limits rather than exact numbers.

T1 sequence (P14210 32-728 limits assumed): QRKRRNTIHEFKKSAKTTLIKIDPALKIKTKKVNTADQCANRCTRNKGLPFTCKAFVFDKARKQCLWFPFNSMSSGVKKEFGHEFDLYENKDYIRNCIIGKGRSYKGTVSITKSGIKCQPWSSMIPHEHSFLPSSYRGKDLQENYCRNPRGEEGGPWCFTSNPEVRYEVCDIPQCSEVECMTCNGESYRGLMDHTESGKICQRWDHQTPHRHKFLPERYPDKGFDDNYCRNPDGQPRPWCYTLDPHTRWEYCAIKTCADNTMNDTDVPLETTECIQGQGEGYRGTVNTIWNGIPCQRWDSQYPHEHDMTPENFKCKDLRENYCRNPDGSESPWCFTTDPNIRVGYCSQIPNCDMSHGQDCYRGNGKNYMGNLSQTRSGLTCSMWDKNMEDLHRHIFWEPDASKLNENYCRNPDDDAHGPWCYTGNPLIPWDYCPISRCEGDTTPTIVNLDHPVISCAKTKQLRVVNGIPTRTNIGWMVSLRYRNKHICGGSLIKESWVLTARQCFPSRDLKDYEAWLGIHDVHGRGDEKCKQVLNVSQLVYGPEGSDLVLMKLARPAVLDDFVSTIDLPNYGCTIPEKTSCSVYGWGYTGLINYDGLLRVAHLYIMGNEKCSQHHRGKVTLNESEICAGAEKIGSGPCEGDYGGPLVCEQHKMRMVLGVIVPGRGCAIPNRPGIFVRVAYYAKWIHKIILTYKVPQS
T2 sequence (P14210 32-728 limits assumed): as above

B1: 5G9 (VHH)
VHH: EVQLVESGGGLVQTGGSLRLSCAASGRTFSPYAAGWFRHAPGKEREFVTAITWSGGSTYYADSVKGRFTISRDNAKNTVYLQMNSLKPEDTAVYYCAASYRWGITHEFDYWGQGTQVTVSS
notes: anti-HGF Nanobody clone, tested as periplasmic extract; not shown: c-myc and His6 tags
B1 displayed a koff in assay [1] of 0.0008 s⁻¹.

B2: 6E10 (VHH)
VHH: EVQLVESGGGLVQAGGSLRLSCAASGRTDSSYAMGWFRQAPGKEHEFVAAISWSGGSTYYADSVKGRFTISRDNAKNTLYLQMNSLKPEDTAVYYCGASYRWGITHEYEYWGQGTQVTVSS
notes: anti-HGF Nanobody clone; not shown: c-myc and His6 tags
In the case of B2, the 50% inhibitory concentration (IC50) in assay [2] came to 3 nM. For the same molecule, in assay [3], the Kd was determined as 1.14 nM and the koff was 5e-05 s⁻¹. Besides, in assay [4], the affinity, expressed as Kd, was 1.14 nM; the koff came out at 5.5e-05 s⁻¹; the kon worked out at 49900 M⁻¹ s⁻¹. The molecule further yielded a koff in assay [1] of 0.000324 s⁻¹.

B3: 5C7 (VHH)
VHH: EVQLVESGGGLVQAGDSLRLSCAASGGTFGSSHMAWFRQVPEKEREFVAAISRSGGTTYYADSVKGRCTISRDNAKNTVYLQMNSLKPEDTAVYYCAAARFWGSTSTRMDDYQYWGQGTQVTVSS
notes: as for B2
On to B3, for which the koff in assay [5] is 0.000821 s⁻¹; in assay [7] it was 0.00605 s⁻¹; in assay [1], 0.0019 s⁻¹. The “IC50 (read off the curve)” value in assay [6] was approximately 10 nM.

B4: 6H6 (VHH)
VHH: EVQLMESGGGLVQAGGSLRLSCAASGRTFSSYAMGWFRQAPGKERENVAAISSSGGYTYYPDSVKGRFTISRDTAKNTVYLQMNSLKPDDTAVYYCAGTQPNFGWQLLLLQTEYDYWGQGTQVTVSS
notes: as for B2
Regarding B4, the koff in assay [5] was 0.00332 s⁻¹; in assay [3], 0.003 s⁻¹; in assay [7] it was 0.00313 s⁻¹; in assay [1], 0.0139 s⁻¹. Moreover, the IC50 in assay [2] came out at 26.7 nM.

B5: 1E2 (VHH)
VHH: EVQLVESGGGLVQPGGSLRLSCAASGRTFSSYAMGWFRQAPGKEREFVAGISWSGSSSYYADSVKGRFTISRDNAKNTVYLQMNSLKPEDTAVYYCAADPVGRADLYEYDYWGQGTQVTVSS
notes: as for B2
The molecule B5 registered an IC50 in assay [2] of 1.8 nM. For the same molecule, in assay [3], the dissociation constant Kd is 1.36 nM and the koff is 0.0001 s⁻¹. In assay [4], this molecule registered a Kd of 1.36 nM, a koff of 0.0001 s⁻¹ and a kon of 75200 M⁻¹ s⁻¹. Moreover, in assay [1], the koff worked out at 0.00312 s⁻¹.

B6: 1C7 (VHH)
VHH: B5 VHH with P14A, S56G, S58T, Q82R
notes: as for B1
B6 came in with a koff in assay [1] of 0.00286 s⁻¹.

B7: 6B2 (VHH)
VHH: B5 VHH with P14A, G50A, S52N, S56D, S58T, D99G, P100D, A104P
notes: as for B2
For B7, the IC50 in assay [2] stood at 2.8 nM. For the same molecule, in assay [3], the Kd is not above 0.08 nM and the koff is not above 1e-05 s⁻¹. Also, in assay [4], the affinity, expressed as Kd, was 0.08 nM; the koff worked out at 2.15e-06 s⁻¹; the association rate constant (kon) is 27800 M⁻¹ s⁻¹. Further, in assay [1], the koff worked out at 0.000774 s⁻¹.

B8: 10G3 (VHH)
VHH: B5 VHH with P14A, A24D, I51V, S52N, S56D, S58T, T91A
notes: as for B1
B8: in assay [1], the koff was 0.000377 s⁻¹.

B9: 1F3 (VHH)
VHH 1: EVQLVESGGGLVQSGGSLKLSCAASGFTFSNYFMSWVRQTPEKRLEWVAYISSGGGSTYYPDSVKGRFTISRDNAKNTLYLQMSSLKSEDTAMYYCVRQGDGYYGDYAMDYWGQGTSVTVSS
VHH 2: DIQMTQSPASLSVSVGETVTITCRASENIYSNLAWYQQKQGKSPQLLVYDATHLPDGVPSRFSGSGSGTQFSLKINSLQSEDFGSYYCQHFWGTPYTFGGGTRLEIKR
The molecule B9 returned a dissociation rate constant (koff) in assay [1] of 0.00345 s⁻¹.

B10: 9G6 (VHH)
VHH: EVQLVESGGGLVQAGGSLRLSCAASGRTLSDYTMGWFRQAPGKEREFVARINTGGPITSYSDSVKGRFTISRDNAKNTVYLQMNSLKPEDTAVYNCAARLPTKMSPRDYSSYAYRGQGTQVTVSS
notes: as for B2
Regarding B10, the koff in assay [5] turned out to be 0.00102 s⁻¹; in assay [3], 0.001 s⁻¹; in assay [7], 0.00237 s⁻¹; in assay [1], 0.00107 s⁻¹. In assay [2], this molecule came in with an IC50 of 6.6 nM.

B11: 6B6 (VHH)
VHH: EVQLVESGGGLVQPGGSLRLSCAASGFTFDDYAMSWGRQAPGKGLEWVSAISWNGGSTYYAESMKGRFTVSRDNAKNTLYLQMNSLKSEDTAVYYCAKALDPLGVLAGTSGIYDYWGQGTQVTVSS
notes: as for B1
B11: the koff in assay [1] was 9.37e-06 s⁻¹.

B12: 6G6 (VHH)
VHH: EVQLVESGGGLAQAGGSLRLSCAASGRSLSNYAMGWFRQAPGKEREIVCAISRSGSITTYADSVKGRFTIAKDNAANTVYLQMNSLKPEDTAAYYCAADPMYYGIPDQNWDYWGQGTQVTVSS
notes: as for B2
Consider B12, for which the IC50 in assay [2] worked out at 2.8 nM. In assay [3], this molecule showed a Kd of 7.37 nM and a koff of 0.006 s⁻¹. In assay [4], the Kd was found to be 7.37 nM, the koff stood at 0.00573 s⁻¹ and the association rate constant (kon) came to 753000 M⁻¹ s⁻¹. For the same molecule, the off-rate constant (koff) in assay [1] stood at 0.00178 s⁻¹.

B13: 6E6 (VHH)
VHH: B12 VHH
notes: as for B1
For B13, the koff in assay [1] was determined as 0.0017 s⁻¹.

B14: 5D10 (VHH)
VHH: B12 VHH
notes: as for B1
In assay [1], B14 registered a koff of 0.00199 s⁻¹.

B15: 9E6 (VHH)
VHH: B12 VHH
notes: as for B1
For the molecule B15, the koff in assay [1] is 0.00218 s⁻¹.

B16: 5B7 (VHH)
VHH: B12 VHH
notes: as for B1
As for B16, the koff in assay [1] was 0.00175 s⁻¹.

B17: 6E11 (VHH)
VHH: B12 VHH
notes: as for B1
In the case of B17, the koff in assay [1] was 0.00168 s⁻¹. This koff and that of the molecule before are within 1.5-fold of each other.

B18: 5E8 (VHH)
VHH: B12 VHH
notes: as for B1
In assay [1], B18 returned a koff of 0.00163 s⁻¹.

B19: 6A6 (VHH)
VHH: B12 VHH
notes: as for B1
B19 came in with a koff in assay [1] of 0.00164 s⁻¹.

B20: 7G6 (VHH)
VHH: EVQLVESGGGLVQAGGSLRLSCAVSGRTFSPYTMGWFRRAPGKEREFVAARTWSGGVAWYADSVKGRFTISSDNAENMVYLQMNSLKPEDTAVYYCAAKSPGRTYSPREERAYARWGQGTQVTVSS
notes: as for B2
For B20, in assay [6], the “IC50 (read off the curve)” value was approximately 3 nM. In assay [4], this molecule had a Kd of 0.67 nM, a koff of 0.000691 s⁻¹ and a kon of 1.06e+06 M⁻¹ s⁻¹. Further, the koff in assay [1] amounted to 0.000936 s⁻¹.

B21: 6F6 (VHH)
VHH: EVQLVESGGGLVQPGGSLRLSCAASGSILGINAMGWYRQAPGKQRELVAVINSGGSTNYADSVKGRFTISRDNAKNTVYLQMNSLKPEDTAVYYCNADEWGDYPGQVYDYWGQGTQVTVSS
notes: as for B2
On to B21, for which the values for the dissociation rate constant (koff) in assay [5], in assay [7] and in assay [1] were 0.00213 s⁻¹, 0.00577 s⁻¹ and 0.00545 s⁻¹, respectively.

B22: 1E9 (VHH)
VHH: EVQLVESGGGLVQPGGSLRLSCAASGFTLDHYTIGWFRQAPGNEREGVSCISSLDGSTYYADSVKGRFTISRDNAKDTVYLQMNSLKPEDTAVYYCAVAGCGAYGLIPYDYWGQGTQVTVSS
notes: as for B2
On to B22, for which the IC50 in assay [2] was determined as 4.5 nM. In addition, the Kd in assay [3] and in assay [4] was 7.16 nM each time. Further, the figures for the koff in assay [3], in assay [4] and in assay [1] were 0.0005 s⁻¹, 0.00052 s⁻¹ and 0.00314 s⁻¹, respectively. In assay [4], the kon worked out at 92000 M⁻¹ s⁻¹.

Source of the values: US20150010546A1 (Ablynx, published 2015).
